Assay results published in article PMC12655336, “Study on the High-Efficiency Expression of Horseradish Peroxidase in Pichia pastoris” (Molecules, 2025).

B1: Degly-HRP (Armoracia rusticana) (protein)
chain: QLTPTFYDNSCPNVSNIVRDTIVNELRSDPRIAASILRLHFHDCFVNGCDASILLDNTTSFRTEKDAFGNANSARGFPVIDRMKAAVESACPRTVSCADLLTIAAQQSVTLAGGPSWRVPLGRRDSLQAFLDLANANLPAPFFTLPQLKDSFRNVGLNRSSDLVALSGGHTFGKNQCRFIMDRLYNFSNTGLPDPTLNTTYLQTLRGLCPLNGNLSALVDFDLRTPTIFDNKYYVNLEEQKGLIQSDQELFSSPNATDTIPLVRSFANSTQTFFNAFVEAMDRMGNITPLTGTQGQIRLNCRVVNSNS
notes: same HRP-C from Pichia pastoris GS115, His-tagged, Ni-NTA purified; deglycosylated with EndoH (O-glycans may remain)
B2: HRP-C (W-HRP) (Armoracia rusticana) (protein)
chain: B1 chain
notes: codon-optimised synthetic HRP-C gene, secreted from Pichia pastoris GS115 with MF4I signal peptide, His-tagged, Ni-NTA purified; glycosylated (not EndoH treated)

Experiments:
[1] = substrate: Cc1cc(-c2cc(C)c(N)c(C)c2)cc(C)c1N; test: spectrophotometric oxidation, Michaelis-Menten fit; type: biochemical, Armoracia rusticana; settings: 1 mM H2O2, 37 °C, 450 nm, deglycosylated enzyme
From the text: (§1) spectrophotometric oxidation, Michaelis-Menten fit on Degly-HRP

[2] = substrate: CCn1c(=NN=c2sc3cc(S(=O)(=O)O)ccc3n2CC)sc2cc(S(=O)(=O)O)ccc21; test: spectrophotometric oxidation, Michaelis-Menten fit; type: biochemical, Armoracia rusticana; settings: 1 mM H2O2, 37 °C, 415 nm, deglycosylated enzyme
From the text: as §1

[3] = substrate: Nc1ccccc1N; test: spectrophotometric oxidation, Michaelis-Menten fit; type: biochemical, Armoracia rusticana; settings: 1 mM H2O2, 37 °C, 492 nm, deglycosylated enzyme
From the text: as §1

purified protein = substrate: COc1ccccc1O; test: purified protein; settings: 1 mM H2O2, 37 °C, 436 nm
[4] = substrate: CCn1c(=NN=c2sc3cc(S(=O)(=O)O)ccc3n2CC)sc2cc(S(=O)(=O)O)ccc21; test: spectrophotometric oxidation, Michaelis-Menten fit; type: biochemical, Armoracia rusticana; settings: 1 mM H2O2, 37 °C, 415 nm, glycosylated enzyme
From the text: (§2) spectrophotometric oxidation, Michaelis-Menten fit on HRP-C (W-HRP)

[5] = substrate: Nc1ccccc1N; test: spectrophotometric oxidation, Michaelis-Menten fit; type: biochemical, Armoracia rusticana; settings: 1 mM H2O2, 37 °C, 492 nm, glycosylated enzyme
From the text: as §2

Protein	Km [1] [µM]	kcat [1] [s⁻¹]	Km [2] [µM]	kcat [2] [s⁻¹]	Km [3] [µM]	kcat [3] [s⁻¹]	Km (purified protein; deglycosylated enzyme) [µM]	kcat (purified protein; deglycosylated enzyme) [s⁻¹]	kcat (purified protein; glycosylated enzyme) [s⁻¹]	Km [4] [µM]	kcat [4] [s⁻¹]	Km [5] [µM]	kcat [5] [s⁻¹]
B1	96	238	45.35	238	41	745	20.59	270					
B2									291	48.55	267	36	747
